A short description of the series: soluble on expression in E. coli; label from the status in PepcDB or PDB records.
Consider “MGSDKIHHHHHHMLFFINLTLKRGLTTLLENANATINPGQKVGLVGKNGCGKSSLFALLKNEMSAEGGEMSFPPNWALAWVNQETPSLDCRAIDYVIQGDREYSRLQQVLQQANTANDGNAIAVLHNQLDAIDAWTIEARAGELLHGLGFTQAELEQPVKAFSGGWRMRLNLAQALICRSDLLLLDEPTNHLDLDAVIWLERWLKQYPGTLILISHDRDFLDPIVGKILHIEQQKLNEYTGDYSSFEQQRATKLAQQNAMYRQQQLKIDHLQRYIDRFKAKATKAKQAQSRIKALERMEKIAPAYVDNPFHFEFREPLSLPNPLLMMENASVGYGEGEKSAVEILSKIKLNLVPGSRIGLLGKNGAGKSTLIKLLAGEIAPTGGTIQLAKGVQLGYFVQHQLDTLRADESALWHLQKIAPQQTEQQLRDYLGGFAFHGDKVNQPVASFSGGEKARLVLALIVWQRPNLLLLDEPTNHLDFRYASGVNGSLGGLSGLFGVGVARSPFIA”, for which the “soluble on expression in E. coli” value is recorded as “not soluble”. Take “TKDFSWTTSLNLSHNKNKIVKLADLPEFIDGNYIRKEGCSYATIYLREYAGVDPNDGRPMYYDNKEDENGNRSRNIVYDPNDADRVELKDIYPKLTGGLMNTFNYKFIDLSFNLSFHLGGYSYDGAMYALQDDGYTAQYNKSTELRRRWKQPGDITDVPRYVYGQEYGGWWNSSRGVHSTDHLRLKSLIVGVSAPQSWLRTIGINSARIYFSGTNLLTWAAYDQYDPELNGIVSYFTPPLKTFAFGLELKF”: the “soluble on expression in E. coli” value is “not soluble”. As for “MNKEMTLLPPPELVQYVGGDFKKVGKEFLKHFIQIGALKSNEKVLDVGCGVGRMAVPLMNYLNDDGAYYGFDLFKDGITWCQNNISTMRNNFHFEHVDIYNQFYNPEGKEDASQYRFPYEDGTFDFIFLTSVFTHLLPKELEHYVSEIVRVLKKDGRCFITFFLINPESSYYLNAGQSTLGFYHRIENCYVVNKDIPNFAVAYPETDICNLLNKYGLEIINKPHYGLWCGRHEYTSYQDIVLTKKSLEHHHHHH”, the “soluble on expression in E. coli” value is recorded as “not soluble”.

Turning to “MKIEEVRFGLVKIDGKEFDHDIVIYPSGRIERRMKEISKKKHGTSHKLDPEELEKYLVEDFDVLLVGTGIYGMLSLLPESKKLVEDKEVIEKPTKEALKLLEELWGKKRILAIIHVTC”, the “soluble on expression in E. coli” value is on record as “soluble”. Turning to “MLSVIIITKNEEANIRRCLESVHFADEIIVLDSGSTDNTLAIAREYTDKVFSTDWQGYGIQKDRALQKAQGDWVLNLDADESVSSELRQEILQAISSDTADAFRIPIQMIFYNQVLKYSGSPKRHIRLFKRENASYSKDIVHEKVLIPVNARVGKLKKPIWHHSFSDVHHVLYKLNKYSSYSAKIRIESNEKVGLVKTFFSALWMFVRCLFLQKGFLDGRAGFLFAVFGAQGAFYRGVKQIYKDRDINKLPSVNHIKEELEHHHHHH”, the “soluble on expression in E. coli” value was “soluble”. The entry for “MVEISKRIISTFGKTNAHFKLITENDRVLVGLSGGKDSLLLATLLARLARHAPFKFEFKALTVDYGIGEDFSYLQNYCAENGIPHEVFKTNIMEVMQEKRRENSSYCSFCSRLRRGALYSKALEGGYNKLALGHHLDDAAESFFMNFSYNGAIRSMPPIYRAYNGLWVIRPLIWLRERQMVDFVLKNNLQTPLCNC” is “not soluble”; for “MVGSLLPSHATEFEKRLADACDFHQDVDGAVLGISRAKLITRPPRFLPWLIEEYGLGELTPYVPNLYDLIDQGLAWQRLRGSVAAIELGLKWLELSARFTPAWSGRAWWNSFQLDFDQLPEQSSLEAIEAIVDLSKSFRSDFRRSTYGYDVEATEGDMSHLDDSMLDFESGVRLTARDTLFSFGRTTQIKHTLTKEEGKLIGNWIDDVDEELSWNQIDYPWELANFPWCSVKKHERDILIAKWFQNRPLYLALRDLDNTLIGYRRCYAVQPVEQAVEGVYSHCGNRFNPSPTGTMLFLAARTDFEDVENKQAASVPLLVHGSLVEQTPLGKLWLGADELRGGVEILKTPINIPLRADVREQFKILLRF” it is “not soluble”; for “MNLFYNPKGVGDVAFIQIEPSVGPFEYEQKHGVVEIKKENEVVGYNIFNVSNNVTINDNGHIKLTTELIKDLQQLITEAGFDYQLDTDVSPKFVVGYVETKEKHPNADKLSVLNVNVGTEKLQIVCGAPNVESGQKVVVAKVGAVMPSGMVIKDAQLRGVDSSGMICSMKELNLPNAPKEKGIMVLNDDYDIGQAFFELEHHHHHH” it is “soluble”. The value for “DVDEVLRLCAEGLHDVLGYERVNILMADTARTSLSFVAAVGTADFNPAGVVLPLDQRGGVITKCFTDRQVYMIDDVSAYPTDFRLQSPYDAIRALRSKSFVICPIVVKGEAIGVFAVDNRSSR” was “not soluble”. The entry for “MGSDKIHHHHHHMTDPRILSLQQAVPALRLKTEPADLEHYGRDWTRRWTPNPLAIALPGSVEEVQAVVRWANTHAVAVVPSGGRTGLSGGAVAANGELVLSLERLNKPLAFDAVDRTLTVQAGMPLEAVHNAAREHGLVYPVDFAARGSCSIGGNIATNAGGIRVIRYGNTREWVAGLSVVTGTGELLHLNNALVKNSSGYDFRHLMIGSEGTLGIVVEATLRLTDPPPPSNVMLLALPSFDVLMQVFAAFRAQLRLEAFEFFTDRALEHVLAHGAQAPFAEVHPYYVVTEFAAGDEAQEAAAMAAFEACMEQGWVSDGVISQSDAQAAQLWRLREGITEALARYTPYKNDVSVRISAMPAFLAETQALLHDAYPHFDVVWFGHIGDGNLHINVLKPDATSQADFITACEQVTKLLAQSLQRFDGSISAEHGIGLVKKPYLWSTRSAAEIALMRGIKHVLDPHLLLNPGKLFDMDEVPGATPAG” is “not soluble”; for “DVGRVLWLAEDITQRKRRREKQALIERVFEVSPVGIVVVERSGRISLANDRAEELLGLEREKITRRRYDQPEWNIYYKDGTEIPDSEHPVTQVLESGEPVFGFEHWIELEDGSERWLSSNAAPILGDDGTVERVVVGLDD” it is “not soluble”; for “KVQTDPPSVPICDLYPNGVFPKGQECEYPPTQDGRTAAWRTTSEEKKALDQASEEIWNDFREAAEAHRQVRKYVMSWIKPGMTMIEICEKLEDCSRKLIKENGLNAGLAFPTGCSLNNCAAHYTPNAGDTTVLQYDDICKIDFGTHISGRIIDCAFTVTFNPKYDTLLKAVKDATNTGIKCAGIDVRLCDVGEAIQEVMESYEVEIDGKTYQVKPIRNLNGHSIGQYRIHAGKTVPIIKGGEATRMEEGEVYAIETFGSTGKGVVHDDMECSHYMKNFDVGHVPIRLPRTKHLLNVINENFGTLAFCRRWLDRLGESKYLMALKNLCDLGIVDPYPPLCDIKGSYTAQFEHTILLRPTCKEVVSRGDDY” it is “soluble”. For “MYSNVQPFINSDLTNCFQSQYTEIESLLFNLLDSPVKYTKHIGGTHHFKYSTEPILDILVGVENLHDITSLDEKRLNYVGFYRLHHKYTKKVMMAKFNNFHELKQQVRLHIIQMNTQTFESYLALDYLLSTNDDIALQFNTKKHQILQHSLTIRQYEMQKQQYFEKLCKKY”, the “soluble on expression in E. coli” value was “not soluble”. The value for “MINLKGITKSFQNGAESIQILHGIDVTLNQGEFTSIMGPSGSGKSTLMNIIGCLDKPTTGTYELAGQNISNMSKTELAHVRNKEIGFVFQNFMLLPRLSALQNVELPLIYAGVDKKERRERSLAALTKVGLADRATHLPNELSGGQKQRVAVARAIVNNPKFILADEPTGALDTKTSTQIMDLFYELNKQGSTIIMITHDREIGEAAARQIVIRDGNIVQDWRG” was “not soluble”. The entry for “MNKEAFERLPQEKKKIIETAYFSAVRKEISASQFFGVCKEALSKDQFESLFSSSTAGREQQEEMKTEHLQDIIQYSGVDLKEEAEHIVRETETNINFGEYEEEDVNNHIGSLMNVPLFREFVSRIGNSRRVGISEESFFLLFQVAKRKMLDIVEKMEESSKWRVEYNLSEFIIRIKNDLSRQLWCLEQIEKAEIEKFTIRRGEEEGRKKVKKTIQEREDLVIKKRLSNTVALAALGIQQKSWMSAEDVRVSEESTAFNSIYSPFDEKALERKVVNRTITMKDFLYVLERDRRYSKSVFTIQHYFRRGSA” is “not soluble”. The value for “AIAPLGEEKNGKCDGSIYVNNPHLDSMTDDILYHFNLGTSTHDLPKMFGDVKFVCVGGSPWRMKSFTEYIAKELGLVDPNAEYPNICAGTDRYAMYKVGPVLSVSHGMGIPSISIMLHELIKLLYHARCTDVTVVRIGTSGGIGLKPGTVVVTKQSVDSLFQPHLEQTILGKPVVRSTELDKELAEELLQCGKELGEFEIIIGNTMCTLDFYEGSNVFEDKCTRIAAYSFKIHVL” was “soluble”; that for “MDTLAFINRALVEEGYSLKDIKLVLITDFEPSSVEAIRRLLAVNQGVSFIGRKYVKEVLEKFGLRNVRFRAVEEIPSLEFKLPESGTVKVLPFRNSPQEASAGYLLEEERILFSGKFLGSFGEKGDTIQIFHRVFFPCRNILDYNVGLLESIGEEFEVFPFYGEKQKLSAKTLKEYFNYTVKGSVLEREVILGLVNGVLLNLSDEERENLLSSIGYLAEVDDKVIVDFYTEPNLFYEEFVNTLPDAVKSKEEFYRIVEKLLEHNFYVPLRAV” was “not soluble”. Turning to “MGSDKIHHHHHHMPSIENMIAWMQARKGKVTYSMTSRMGPNSYDCSSSIFFAMIAGGFLSAGSMGNTETLFGMSGTKLKEISRGEVQRGDVFISGTPGGSAGSDGHTGIFLSNGSFIHCSYTHNGIAVDTNDAYMSTRLPHHFYRIVGSGSGNTDNKPQMVTLNVDGQFGNATAKRLQEYFDTAGKDGVISHQYKQTFNQNIYAAQFDSSLTGSNVVKALQRFLGIGQDGLFGQGTIKALQKHLGTTQDGTISPVSDSVRELQRRLNANKL”, the “soluble on expression in E. coli” value was “not soluble”. Turning to “MQVPLNSADIDYAQFKDANGQEVLVIADGGKLKAFDGTKVYEIVPAPNESGYPANDLANINNKGLKGCVVHNTRVVIWDGSDTIWHSKIGYYDYFGQTDYQRFVRENDYVQTCVTFAGALLVFMRRHIGVLFGHDVEDWSQGFLDTQNGCINPKTVQTVTHPDGRQEVFYLSDNGVHAVYTIDTIEMDVSNRYSTRSVTEGLIDWKALGVTKDEWKRATAYFYDGRYWLIYPKGSEWRGLVYDTRLQAWFPINNVKANSFYHDEDYFYFAGDDGHLKVFDDTLYSDWNDKNKTSGTPINFYWYSKLLTPKLTGYDHFWDVLMIEAKQFPQKSALDVEVNTYLGRFTQEKAVKTASLVWGVTEWGEAQWQNPFLTEAVNNAKRLPTFLKGQYAQIKLSNNRDEPVEIYSLKYEVRLME”, the “soluble on expression in E. coli” value was “not soluble”. Take “MGSDKIHHHHHHMFPTFFGISSIHGGQMAHSVSQAYLHISPPQVIGCHDGTTFNSYTNDDSARRYNSKSANKAPPAGQAFGCHESTTFKRTQQVNTPLDVIHPNSNIPNLPPPAFGKCPYPPWQHLDAANTIFIFPPLTVTLITNSRRVSAAAYDSNAIESVMQGTLRKMRTRLDEQGLANYQLLVGDNEVELNPFIGSSIKLVHTGNIFCCNCGKKTKKSYSQGHCFVCMKKLASCDMCIMKPETCHFAEGTCREPEWGEANCFVPHYVYLSNTSGLKVGITRHTQLPTRWIDQGATQGLPILKVSSRQLSGLIEVELAKMIADKTNWRAMLKGNADPLPLKQHAEELLPQIEQHIHSLAMAHGEYAIERLNEEIVAIDYPVSEFPTKIASHNFDKDPVVSGTLLGIKGQYLIFDTGVINLRKFTAYEVSFEAE”: the “soluble on expression in E. coli” value is reported as “not soluble”. The entry for “MGSDKIHHHHHHMKVTFLGHAVVLIEGKKNIIIDPFISGNPVCPVKLEGLPKIDYILVTHGHGDHLGDAVEIAKKNDATVISNYEICHYLGKKGVKTHAMHIGGSYLFDFGRVKMTPAVHGSGILDGDSMIYGGNPSGFLITIEGKKIYHAGDTGLTREMELLAEENVDVAFLPIGGNFVMDVEDAVRAAVMIKPKKVVPMHYGTWELIFADVELFKKKVEEKGVECVILEPGESLEL” is “not soluble”.
